As usually defined, the IC50 is the midpoint of a concentration-inhibition curve.

The record followed here is US20240092934A1 (FAMEWAVE, published 2024).

Sequences and labels used below:
T1: recombinant human CEACAM-1 (R&D Systems cat. no. 2244-CM-050) (human, UniProt P13688 35-428)
T1 construct: Coated on the ELISA plate at 0.5 ug/ml
T1 sequence (looked up): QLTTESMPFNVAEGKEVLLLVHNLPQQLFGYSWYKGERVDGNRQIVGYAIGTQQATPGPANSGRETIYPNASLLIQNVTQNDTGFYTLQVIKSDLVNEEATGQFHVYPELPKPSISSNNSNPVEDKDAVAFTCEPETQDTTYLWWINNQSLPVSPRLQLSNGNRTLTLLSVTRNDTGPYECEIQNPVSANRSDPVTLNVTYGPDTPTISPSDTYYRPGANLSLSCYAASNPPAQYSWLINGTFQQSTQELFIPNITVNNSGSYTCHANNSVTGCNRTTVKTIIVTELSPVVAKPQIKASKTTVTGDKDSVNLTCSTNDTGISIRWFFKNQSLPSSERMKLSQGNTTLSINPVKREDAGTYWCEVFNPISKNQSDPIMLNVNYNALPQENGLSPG

B1: humanized anti-CEACAM-1 variant VH4/VK1, IgG4 (S241P) (antibody, V domains shown)
VH: QVQLVQSGAEVKKPGASVKVSCKASGYAFTNNLIEWVRQAPGQGLEWIGVINPGSGDTNYNEKFKGRATLTADKSISTAYMELSRLRSDDTAVYYCARGDYYGGFAVDYWGQGTTVTVSS
VL: DIQMTQSPSSLSASVGDRVTITCRTSQDIGNYLNWYQQKPGKAVKLLIYYTSRLHSGVPSRFSGSGSGTDYTLTISSLQQEDIATYFCQQGKSLPRTFGGGTKVEIK
notes: Tested as human IgG4 (S241P) / kappa antibody; only the variable regions are tied to this variant
B2: humanized anti-CEACAM-1 variant VH3/VK2, IgG4 (S241P) (antibody, V domains shown)
VH: B1 VH with S77N
VL: B1 VL with Q80P
notes: as for B1
B3: humanized anti-CEACAM-1 variant VH5/VK2, IgG4 (S241P) (antibody, V domains shown)
VH: B1 VH with A68V, L70M
VL: B1 VL with Q80P
notes: as for B1
B4: humanized anti-CEACAM-1 variant VH5/VK3, IgG1 (antibody, V domains shown)
VH: B1 VH with A68V, L70M
VL: B1 VL with L73F, Q80P
notes: Tested as human IgG1 / kappa antibody; only the variable regions are tied to this variant
B5: humanized anti-CEACAM-1 variant VH5/VK1, IgG1 (antibody, V domains shown)
VH: B1 VH with A68V, L70M
VL: B1 VL
notes: as for B4
B6: humanized anti-CEACAM-1 variant VH5/VK3, IgG4 (S241P) (antibody, V domains shown)
VH: B1 VH with A68V, L70M
VL: B1 VL with L73F, Q80P
notes: as for B1
B7: humanized anti-CEACAM-1 variant VH4/VK3, IgG1 (antibody, V domains shown)
VH: B1 VH
VL: B1 VL with L73F, Q80P
notes: as for B4
B8: humanized anti-CEACAM-1 variant VH5/VK2, IgG1 (antibody, V domains shown)
VH: B1 VH with A68V, L70M
VL: B1 VL with Q80P
notes: as for B4
B9: humanized anti-CEACAM-1 variant VH4/VK3, IgG4 (S241P) (antibody, V domains shown)
VH: B1 VH
VL: B1 VL with L73F, Q80P
notes: as for B1
B10: humanized anti-CEACAM-1 variant VH4/VK2, IgG1 (antibody, V domains shown)
VH: B1 VH
VL: B1 VL with Q80P
notes: as for B4
B11: humanized anti-CEACAM-1 variant VH4/VK2, IgG4 (S241P) (antibody, V domains shown)
VH: B1 VH
VL: B1 VL with Q80P
notes: as for B1
B12: humanized anti-CEACAM-1 variant VH5/VK1, IgG4 (S241P) (antibody, V domains shown)
VH: B1 VH with A68V, L70M
VL: B1 VL
notes: as for B1

Where a chain is given by its changes, count along the chain named. Numbers in names are those of the source.

In this test the target is T1, recombinant human CEACAM-1 (R&D Systems …). Briefly: competition ELISA on coated recombinant human CEACAM-1; competitor biotinylated chimeric CM-10 IgG1. The source says:
The binding of the biotinylated antibody was detected with streptavidin-HRP (Sigma cat. no. S5512) and TMB substrate (Invitrogen cat. no. 00-2023). The reaction was stopped with 3M HC1, absorbance read at 450 nm on a Dynex Technologies MRX TC II plate reader and the binding curves plotted.
Consider B1, for which the IC50 was 0.69 µg/mL and the “IC50 normalized to CM-10” value was 1.15 ratio to IC50 of chimeric CM-10.

Consider B2, for which the IC50 was found to be 0.77 µg/mL and the “IC50 normalized to CM-10” value was 1.26 ratio to IC50 of chimeric CM-10.

For B3, the IC50 turned out to be 0.7 µg/mL and the “IC50 normalized to CM-10” value was 1.16 ratio to IC50 of chimeric CM-10.

As to B4, the IC50 was 0.74 µg/mL and the “IC50 normalized to CM-10” value was 1.12 ratio to IC50 of chimeric CM-10.

On to B5, for which the IC50 worked out at 0.77 µg/mL and the “IC50 normalized to CM-10” value was 1.17 ratio to IC50 of chimeric CM-10.

As to B6, the IC50 is 0.7 µg/mL and the “IC50 normalized to CM-10” value was 1.17 ratio to IC50 of chimeric CM-10.

B7: the IC50 worked out at 0.99 µg/mL and the “IC50 normalized to CM-10” value is 1.56 ratio to IC50 of chimeric CM-10.

Regarding B8, the IC50 came to 0.72 µg/mL and the “IC50 normalized to CM-10” value was 1.09 ratio to IC50 of chimeric CM-10.

As to B9, the IC50 is 0.63 µg/mL and the “IC50 normalized to CM-10” value was 1.06 ratio to IC50 of chimeric CM-10.

With B10, the IC50 was determined as 0.78 µg/mL and the “IC50 normalized to CM-10” value was 1.24 ratio to IC50 of chimeric CM-10.

Consider B11, for which the IC50 is 0.69 µg/mL and the “IC50 normalized to CM-10” value was 1.17 ratio to IC50 of chimeric CM-10.

Take B12: the IC50 stood at 0.74 µg/mL and the “IC50 normalized to CM-10” value is 1.23 ratio to IC50 of chimeric CM-10.
